In patent US20090035320A1 (MIE UNIVERSITY, published 2009):
Substitutions are numbered along the chain they refer to.

T1: PCI-Flag (human, UniProt P05154 26-406, limits assumed)
T1 construct: Full-length human PCI ORF with a C-terminal Flag tag, secreted by CHO cells and purified from the culture supernatant; also called Flag-tagged PCI
T1 chain: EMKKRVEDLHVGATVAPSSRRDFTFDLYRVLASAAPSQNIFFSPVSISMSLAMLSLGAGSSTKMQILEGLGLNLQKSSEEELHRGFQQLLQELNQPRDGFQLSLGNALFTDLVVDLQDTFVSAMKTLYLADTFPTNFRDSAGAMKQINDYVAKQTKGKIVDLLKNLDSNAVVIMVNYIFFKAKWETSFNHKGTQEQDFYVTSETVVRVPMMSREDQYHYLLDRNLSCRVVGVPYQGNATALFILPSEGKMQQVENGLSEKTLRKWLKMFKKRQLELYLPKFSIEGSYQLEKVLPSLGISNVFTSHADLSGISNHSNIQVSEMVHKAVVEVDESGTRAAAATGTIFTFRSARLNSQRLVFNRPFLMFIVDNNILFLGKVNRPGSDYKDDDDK

B1: PC31E2 (antibody, V domains shown)
VH: QVQLQQSGAELVKPGASVKMSCKAFGYTFTTYPIEWMKQNHGKSLEWIGKFHPDNDDTNYNEKFKGKAKLTVEKSSSTVYLELSRLTSDDSAVYYCARGHDYDYGMDYWGQGTSVTVSS
VL: DIVLTQSPASLAVSLGQRATISCKASQSVDYDGDSYLNWYQQKPGQPPKLLIYGASNLESGTPARFSGSGSGTDFTLDIHPVEEEDAATYYCQQSNEDPPTFGGGTKLEIT
notes: also called anti-PCI neutralizing antibody
B2: PC19G8 (antibody, IgG1, V domains shown)
VH: EVQLQQSGAELVKPGASVKLSCTASGFDIKDTFMHWVKQRPEQGLEWIGRIDYVNGNTKYDPKFQGKATITGDTSSNTAYLQLSSLTSEDTAVYYCARGGYDVREFAYWGQGTLVTVSA
VL: QIVLTQSPAIMSASPGEKVTITCSATSSLIYMHWFQQKPGSSPELWIYSTSNLASGVPARFSGSGSGTSYSLTISRMEAEDAATYYCQQRSSYPFTFGSGTKLEIK
notes: also called clone #19G8; anti-PCI neutralizing antibody
B3: PC39C6 (antibody, IgG1, V domains shown)
VH: EVQLQQSGAELVRPGALVKLSCKASGFNIKDYYIHWVKQRPEQGLEWIGRIDLEKGNIIYDPKFQGKDNITADTSSNTAYLQLSSLTSEDTAVYYCARGGYDVPSFAYWGQGTLVTVSA
VL: B2 VL with T26S, L29V, I30S, S41T, E44K
notes: Mouse hybridoma monoclonal, IgG1, purified on Protein G; also called anti-PCI neutralizing antibody
B4: PC23D8 (antibody, IgG2a, V domains shown)
VH: B2 VH
VL: B2 VL
notes: as for B1
B5: PC23A7 (antibody, IgG2a, V domains shown)
VH: B2 VH with K30R, Y53L, G56V, K63N, G66D, K67R, G72A, S84T
VL: B2 VL with S41T, E44K
notes: Mouse hybridoma monoclonal, IgG2a, purified on Protein G; also called anti-PCI neutralizing antibody

Target: T1, PCI-Flag
Test: SPR (BIACORE 2000), PCI-Flag amine-coupled to CM5 chip, antibody injected
Description: PCI-Flag was diluted to 25 μg/ml with 10 mM sodium acetate (pH5.0), and then amine-coupled to a sensor chip CM5 (BIACORE; BR-1000-14) using an amine coupling kit (BIACORE; BR-1000-50) according to the method described in the kit. Approximately 3,000 RU of PCI-Flag was immobilized onto the CM5 chip by this treatment. The kinetic analyses described below were performed on BIACORE 2000 using the sensor chip. […] After the chip was equilibrated with HBS-EP buffer, 40 μl of the antibody solution at each concentration was injected at a flow rate of 20 μl/min. In the association phase, the antibody was injected over two minutes. Then, instead of the antibody, HBS-EP buffer was injected over two minutes in the dissociation phase. After the dissociation phase, 40 μl of 10 mM HCl and then 40 μl of 0.05% SDS were injected continuously to regenerate the sensor chip. The sensorgrams obtained by the procedure described above were superimposed, and the binding rate constant (ka), dissociation rate constant (kd), dissociation constant (KD), and maximal binding (Rmax) were computed using data analysis software (BIAevaluation, ver. 3.0).

Binder | Kd [nM] | koff [s⁻¹] | kon [M⁻¹ s⁻¹]
B1 | 1.79 | 0.000313 | 175000
B2 | 0.126 | 2.13e-05 | 168000
B3 | 5.51 | 0.000489 | 88800
B4 | 0.293 | 6.59e-05 | 225000
B5 | 0.473 | 7.17e-05 | 151000
